Changes are numbered by the printed parent chain. Names and notes keep the numbering of the source. Values joined by “and” are separate entries in the source; they are usually repeats but may differ in a detail not shown here. Equal values may be shown once.
B1: KB001 mouse Fab VL S32A (Fab, V domains shown)
VH: EVQLKQSGPGLVAPSQSLSITCTVSGFSLSIYSVHWVRQPPGKGLEWLGMIWGGGSSDYNSALKSRLSISKDNSKSQVFLKMNSLQTDDTAMYYCARNGNFYAMDYWGQGTSVTVSS
VL: QIVLTQSPAIMSASLGERVTMTCTASSSVSSAFLHWYQQKPGSSPQLWIYSTSNLASGVPARFSGSGSGTSYSLTISSMEAEDAATYYCHQYHHSPYIYTFGGGTKLEIK
B2: KB001 mouse Fab VL L34V (Fab, V domains shown)
VH: B1 VH
VL: B1 VL with A32S, L34V
B3: KB001 mouse Fab VL N54K (Fab, V domains shown)
VH: B1 VH
VL: B1 VL with A32S, N54K
B4: KB001 mouse Fab VL N54E (Fab, V domains shown)
VH: B1 VH
VL: B1 VL with A32S, N54E
B5: KB001 mouse Fab VL L34I (Fab, V domains shown)
VH: B1 VH
VL: B1 VL with A32S, L34I
B6: KB001 mouse Fab VL S53Y (Fab, V domains shown)
VH: B1 VH
VL: B1 VL with A32S, S53Y
B7: KB001 mouse Fab VL T52L (Fab, V domains shown)
VH: B1 VH
VL: B1 VL with A32S, T52L
B8: KB001 mouse Fab VL F33N (Fab, V domains shown)
VH: B1 VH
VL: B1 VL with A32S, F33N
B9: KB001 mouse Fab VL S53R (Fab, V domains shown)
VH: B1 VH
VL: B1 VL with A32S, S53R
B10: KB001 mouse Fab VL S53L (Fab, V domains shown)
VH: B1 VH
VL: B1 VL with A32S, S53L
B11: KB001 mouse Fab VL S32P (Fab, V domains shown)
VH: B1 VH
VL: B1 VL with A32P
B12: KB001 mouse Fab VL S32Y (Fab, V domains shown)
VH: B1 VH
VL: B1 VL with A32Y
B13: KB001 mouse Fab VL S32Q (Fab, V domains shown)
VH: B1 VH
VL: B1 VL with A32Q
B14: KB001 mouse Fab VL S53V (Fab, V domains shown)
VH: B1 VH
VL: B1 VL with A32S, S53V
B15: KB001 mouse Fab VL S53E (Fab, V domains shown)
VH: B1 VH
VL: B1 VL with A32S, S53E
B16: KB001 mouse Fab VL L34M (Fab, V domains shown)
VH: B1 VH
VL: B1 VL with A32S, L34M
B17: KB001 mouse Fab VL N54W (Fab, V domains shown)
VH: B1 VH
VL: B1 VL with A32S, N54W
B18: KB001 mouse Fab VL S53W (Fab, V domains shown)
VH: B1 VH
VL: B1 VL with A32S, S53W
B19: KB001 mouse Fab VL T52M (Fab, V domains shown)
VH: B1 VH
VL: B1 VL with A32S, T52M
B20: KB001 mouse Fab VL N54I (Fab, V domains shown)
VH: B1 VH
VL: B1 VL with A32S, N54I
B21: KB001 mouse Fab VL S32G (Fab, V domains shown)
VH: B1 VH
VL: B1 VL with A32G
B22: KB001 mouse Fab VL N54D (Fab, V domains shown)
VH: B1 VH
VL: B1 VL with A32S, N54D
B23: KB001 mouse Fab VL S32W (Fab, V domains shown)
VH: B1 VH
VL: B1 VL with A32W
B24: KB001 mouse Fab VL S53C (Fab, V domains shown)
VH: B1 VH
VL: B1 VL with A32S, S53C
B25: KB001 mouse Fab VL T52K (Fab, V domains shown)
VH: B1 VH
VL: B1 VL with A32S, T52K
B26: KB001 mouse Fab VL S53D (Fab, V domains shown)
VH: B1 VH
VL: B1 VL with A32S, S53D
B27: KB001 mouse Fab VL F33H (Fab, V domains shown)
VH: B1 VH
VL: B1 VL with A32S, F33H
B28: KB001 mouse Fab VL S53A (Fab, V domains shown)
VH: B1 VH
VL: B1 VL with A32S, S53A
B29: KB001 mouse Fab VL T52R (Fab, V domains shown)
VH: B1 VH
VL: B1 VL with A32S, T52R

Molecular target: HRgpA-6H (Porphyromonas gingivalis) (UniProt P28784)
Assay: ELISA, coated HRgpA-6H

UniProt P28784, sequence (P28784 228-860 limits assumed): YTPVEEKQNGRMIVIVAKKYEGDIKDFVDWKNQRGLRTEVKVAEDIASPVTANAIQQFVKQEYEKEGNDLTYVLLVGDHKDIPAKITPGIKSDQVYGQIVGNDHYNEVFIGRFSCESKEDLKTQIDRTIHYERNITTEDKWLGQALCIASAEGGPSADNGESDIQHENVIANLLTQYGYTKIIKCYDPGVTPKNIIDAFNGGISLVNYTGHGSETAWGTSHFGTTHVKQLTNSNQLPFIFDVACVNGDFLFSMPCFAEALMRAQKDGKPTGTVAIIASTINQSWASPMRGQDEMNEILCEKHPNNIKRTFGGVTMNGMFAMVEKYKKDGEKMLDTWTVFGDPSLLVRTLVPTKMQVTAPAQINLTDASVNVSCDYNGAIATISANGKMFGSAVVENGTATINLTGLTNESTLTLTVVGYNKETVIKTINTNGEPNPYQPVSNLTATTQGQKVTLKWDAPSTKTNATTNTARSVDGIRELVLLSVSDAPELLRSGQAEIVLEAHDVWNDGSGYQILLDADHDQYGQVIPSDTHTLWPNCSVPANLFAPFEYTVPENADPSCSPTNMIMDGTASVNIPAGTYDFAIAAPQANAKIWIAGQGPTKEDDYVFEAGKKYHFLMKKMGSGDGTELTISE

B1 was tested, and the OD450 nm was 0.748 and 0.805.
B2 was tested, and the OD450 nm was 0.641 and 0.634.
With B4 the OD450 nm was 0.744 and 0.74.
In the case of B6, the OD450 nm is reported as 0.776 and 0.781.
In the case of B10, the OD450 nm is reported as 0.639 and 0.636.
With B16 the OD450 nm was 0.736 and 0.741 and 0.714.
B20 was tested, and the OD450 nm was 0.755 and 0.772 and 0.754.
For B29, the OD450 nm was 0.724 and 0.681 and 0.685.

With B1 the Ratio OD(Variant)/OD(WT) was 0.885 and 0.953.
B2 was tested, and the Ratio OD(Variant)/OD(WT) was 0.846 and 0.836.
With B4 the Ratio OD(Variant)/OD(WT) was 0.95 and 0.944.
For B6, the Ratio OD(Variant)/OD(WT) was 0.985 and 0.992.
With B10 the Ratio OD(Variant)/OD(WT) was 0.811 and 0.808.
With B16 the Ratio OD(Variant)/OD(WT) was 0.971 and 0.978 and 0.911.
B20 was tested, and the Ratio OD(Variant)/OD(WT) was 0.964 and 0.985 and 0.962.
With B29 the Ratio OD(Variant)/OD(WT) was 0.919 and 0.865 and 0.87.

First: B3
Second: B5
The OD450 nm of the first is higher: 0.727 for the first, 0.67 for the second.

Compared with B7, B8 is lower in OD450 nm: 0.769 for the first, 0.64 for the second.

First: B9
Second: B11
The OD450 nm of the first is lower: 0.637 for the first, 0.744 for the second.

Compared with B12, B13 is lower in OD450 nm: 0.753 for the first, 0.716 for the second.

First: B14
Second: B15
The OD450 nm of the first is lower: 0.702 for the first, 0.766 for the second.

First: B17
Second: B18
The OD450 nm of the first is lower: 0.646 for the first, 0.727 for the second.

Going from B19 to B21, the OD450 nm rises from 0.662 to 0.759.

Compared with B22, B23 is lower in OD450 nm: 0.725 for the first, 0.649 for the second.

Compared with B24, B25 is lower in OD450 nm: 0.697 for the first, 0.681 for the second.

Going from B26 to B27, the OD450 nm falls from 0.775 to 0.736.

B28 gave an OD450 nm of 0.784.

Going from B3 to B5, the Ratio OD(Variant)/OD(WT) falls from 0.928 to 0.884.

First: B7
Second: B8
The Ratio OD(Variant)/OD(WT) of the first is higher: 0.977 for the first, 0.844 for the second.

Going from B9 to B11, the Ratio OD(Variant)/OD(WT) rises from 0.809 to 0.88.

First: B12
Second: B13
The Ratio OD(Variant)/OD(WT) of the first is higher: 0.891 for the first, 0.847 for the second.

Compared with B14, B15 is higher in Ratio OD(Variant)/OD(WT): 0.891 for the first, 0.973 for the second.

Compared with B17, B18 is higher in Ratio OD(Variant)/OD(WT): 0.825 for the first, 0.923 for the second.

First: B19
Second: B21
The Ratio OD(Variant)/OD(WT) of the first is lower: 0.841 for the first, 0.898 for the second.

First: B22
Second: B23
The Ratio OD(Variant)/OD(WT) of the first is higher: 0.925 for the first, 0.856 for the second.

Going from B24 to B25, the Ratio OD(Variant)/OD(WT) falls from 0.885 to 0.865.

First: B26
Second: B27
The Ratio OD(Variant)/OD(WT) of the first is higher: 0.984 for the first, 0.971 for the second.

For B28, the Ratio OD(Variant)/OD(WT) was 0.996.

— patent publication US20240400654A1
